According to patent publication US8715970B2, “Enzymatically catalyzed method of preparing mono-acylated polyols” (BASF SE, priority 2009, dated 2014):

Assays:
Type in all cases: biochemical
[1] = Active site titration with inhibitor and activity measurement after inhibition (Example 1); conditions: for Share of immobilized enzyme inhibited (activity measurements after inhibition): 50 μM inhibitor in acetonitrile, activity with 1-butanol and vinyl butyrate in MTBE
Procedure: The amount of enzyme loaded on the carriers was confirmed by active site titration using the inhibitor methyl 4-methylumbelliferyl hexylphosphonate. Inhibitor from an ampoule stored in a freezer (−20° C.) was dissolved to a concentration of 50 μM in acetonitrile. The inhibitor was previously synthesized and used for active site titration of CALB as described in Magnusson, A. O., et al., Creating space for large secondary alcohols by rational redesign of Candida antarctica lipase B. Chembiochem, 2005. 6(6): p. 1051-1056 and Rotticci, D., et al., An active-site titration method for lipases. Biochimica Et Biophysica Acta-Molecular and Cell Biology of Lipids, 2000. 1483(1): p. 132-140.
Inhibition reactions were run in three separate vials each containing 50 mg enzyme carrier beads with immobilized CALB wild type and T40A-mutant. The wild type was run in one of the reaction vials, and the other two contained T40A-mutant. The enzymes were incubated in 1 ml of 50 μM inhibitor dissolved in acetonitrile. Each vial were sealed and covered in aluminium foil, to prevent light from damaging the fluorophore, and stored in continuous end over end. Aliquots were taken after 2, 5 and 9 days. […] Analysis was preformed by fluorescence using a Perkin Elmer LS 50 B fluorimeter. […] Fluorescence was also measured in two different control samples. Inhibitor, 50 μM in acetonitrile, was incubated without enzyme for control of background fluorescence from spontaneous hydrolysis of the methyl 4-methylumbelliferyl hexylphosphonate. In addition to this, 50 mg of each enzyme was incubated in acetonitrile without inhibitor for control of any background fluorescence from the immobilized enzyme. The total fluorescence from these samples was subtracted from the fluorescence measured in the inhibition reactions. […]
Remaining activity was measured after inhibition. […] For comparison, the reaction was repeated with the enzyme used for control of background fluorescence. […] The amounts of immobilized enzymes taken from the fluorescence controls used in the reactions were 2.8 mg of the wild type and 9.0 T40A. […]

[2] = Enzyme-catalyzed acylation of 2-phenyl-1,3-propanediol with ethyl acetate as acyl donor (Example 2); conditions: 2-Ph-1,3-propanediol 20 mM in ethyl acetate; for Maximum monoester yield: 29° C.
Procedure: (§1) Each diol was dissolved to a concentration of 20 mM together with 5 mM of 3-hexanone in ethyl acetate, ≧99% from Fluka, which was used as acyl donor and solvent. Reactions were started by adding 4 ml reaction solution to 20 mg enzyme carrier beads loaded with either wild-type or T40A mutated CALB. Reactions were run at 29° C. on a HLC rotating thermo block. Aliquots of 50 μl were taken, filtered through wool in a Pasteur pipette and diluted with 50 μl ethyl acetate prior to analysis. The 3-hexanon used as internal standard were present in the reaction solution throughout both reaction and analysis.
(§2) 5 mM 3-hexanone was used as internal standard in the reaction mixtures together with 20 mM diol. Aliquots were taken during the reaction by taking 50 μl of reaction sample. The samples were filtered though wool together with 50 μl ethyl acetate, thereby any remaining enzyme were removed and the reaction samples were diluted by a factor of 2 prior to analysis.
(§3) The reactions catalyzed by the T40A-mutant were rerun with 100 mg enzyme carrier beads for determination of maximum monoester yield. The reactions with 2-methyl-1,3-propanediol and 2-phenyl-1,3-propanediol were rerun at 100 mM concentration of diol and 50 mg enzyme carrier beads, both with CALB wild type and CALB T40A-mutant. This was done in order to determine the enantiomeric excess.
(§4) All reactions were analyzed on GC, Hewlett Packard 5890 series II. Two different 25 m×0.32 mm WCOT fused silica columns were used, depending on the different substrates and products that were analyzed. A polar GC-column with CP Chirasil-Dex CB coating was used for the reactions with 1,2-ethanediol and 1,3-propanediol. A non-polar GC-column with CP-SIL 5CB coating was used for the reactions with 1,4-butanediol, 2-methyl-1,3-propanediol and 2-phenyl-1,3-propanediol.
(§5) The response factor for each diol was determined in relationship to 3-hexanone. When all diol and mono-ester had converted to di-ester, the response factor for the di-ester could be determined in relationship to […]. The concentration of mono-ester in each reaction was determined by subtracting the concentration of di-ester from the starting concentration of diol.

[3] = Enzyme-catalyzed acylation of 1,2-ethanediol with ethyl acetate as acyl donor (Example 2); conditions: for Maximum monoester yield: 1,2-ethanediol 20 mM in ethyl acetate (acyl donor and solvent), 29° C.; for Conversion at 3:1 (monoester:diester) / Conversion at 9:1 (monoester:diester): 1,2-ethanediol 20 mM in ethyl acetate; for Conversion at 3:1 (monoester:diester): product distribution 75%; for Conversion at 9:1 (monoester:diester): product distribution 90%
Procedure: as §1, §2, §3, §4, §5
A great difference in concentration between acyl donor and diol was accomplished in the reactions by using ethyl acetate as solvent and acyldonor and a diol concentration of 20 mM. Therefore the reactions was considered to irreversible, following the reaction scheme:
[formula] A, B and C corresponds to diol, monoester and diester, respectively. k1 and k2 respectively corresponds to the reaction rates of the acylation of diol and monoester.
The reaction rates are dependent on enzyme concentrations and the kcat/KM towards the substrates. By fitting the concentrations measured over time into the equations and using the enzyme concentration determined by active site titration, the following results were obtained.

| Molecule | Share of immobilized enzyme inhibited (activity measurements after inhibition) [1] [%] | Conversion at 3:1 (monoester:diester) [2] [%] | Maximum monoester yield [2] | Maximum monoester yield [3] [%] | Maximum monoester yield ([3]; listed as wild type) [%] | Conversion at 3:1 (monoester:diester) [3] [%] | Conversion at 3:1 (monoester:diester) ([3]; listed as wild type) [%] | Conversion at 9:1 (monoester:diester) [3] [%] | Conversion at 9:1 (monoester:diester) ([3]; listed as wild type) [%] | Selectivity diol/monoester ([3]; 1,2-ethanediol, ethyl acetate) | Remaining activity after inhibition ([1]; 100 mM 1-butanol, 1 M vinyl butyrate in MTBE) | Conversion at 3:1 (monoester:diester) ([3]; listed as T40A CALB) [%] | Conversion at 9:1 (monoester:diester) ([3]; listed as T40A CALB) [%] | Selectivity ratio diol/monoester T40A/WT ([3]; 1,2-ethanediol, ethyl acetate) | Selectivity diol/monoester ([3]; 1,2-ethanediol, ethyl acetate, listed as T40A CALB) |
| --- | --- | --- | --- | --- | --- | --- | --- | --- | --- | --- | --- | --- | --- | --- | --- |
| WT: non-mutated Candida antarctica lipase B (CALB), SEQ ID NO: 2, immobilized on carrier beads (protein, listed as Candida antarctica, immobilized on carrier beads) LPSGSDPAFSQPKSVLDAGLTCQGASPSSVSKPILLVPGTGTTGPQSFDSNWIPLSAQLGYTPCWISPPPFMLNDTQVNTEYMVNAITTLYAGSGNNKLPVLTWSQGGLVAQWGLTFFPSIRSKVDRLMAFAPDYKGTVLAGPLDALAVSAPSVWQQTTGSALTTALRNAGGLTQIVPTTNLYSATDEIVQPQVSNSPLDSSYLFNGKNVQAQAVCGPLFVIDHAGSLTSQFSYVVGRSALRSTTGQARSADYGITDCNPLPANDLTPEQKVAAAALLAPAAAAIVAGPKQNCEPDLMPYARPFAVGKRTCSGIVTP | 83 | 46 | 52% | 43 | 43 | 17 | 17 | <9 | 9 | 1.9 | – | – | – | – | – |
| T40A: CALB mutant with single mutation Thr40Ala (SEQ ID NO: 4) (protein, T40 Mutant) LPSGSDPAFSQPKSVLDAGLTCQGASPSSVSKPILLVPGXGTTGPQSFDSNWIPLSAQLGYTPCWISPPPFMLNDTQVNTEYMVNAITTLYAGSGNNKLPVLTWSQGGLVAQWGLTFFPSIRSKVDRLMAFAPDYKGTVLAGPLDALAVSAPSVWQQTTGSALTTALRNAGGLTQIVPTTNLYSATDEIVQPQVSNSPLDSSYLFNGKNVQAQAVCGPLFVIDHAGSLTSQFSYVVGRSALRSTTGQARSADYGITDCNPLPANDLTPEQKVAAAALLAPAAAAIVAGPKQNCEPDLMPYARPFAVGKRTCSGIVTP | 21 | >95 | 55-65% | 77 | – | 99 | – | 78 | – | 7.7 | to low to measure | 99 | 78 | 4.0 | 7.6 |
